From publication PMC6331727

Biological target: ADP-ribosylation factor-like protein 13B (Arl13b)
Test: co-immunoisolation with paramagnetic beads, immunoblot quantification
Conditions: MDCK cells expressing Prom1 or K138Q; n = 3; parent: est. 0.53; read off a plot

other: Arl13b / Prom1 ratio: 0.05
Substance: Human Prominin-1 (Prom1/CD133), splice variant s2 (from UniProt O43490) K138Q
